Data reported in patent publication US20230050846A1 (LIFESEARCH, published 2023).

Molecular target: Human F1Fo-ATPase purified from HepG2 cells (human)
Assay: cell-based or functional assay

Binder | F1-ATPase activity (NADH-coupled assay, purified F1Fo-ATPase, 1 µM peptide), inhibition as compared to control
IF1-1-60 (peptide) peptide: GSDQSENVDRGAGSIREAGGAFGKREQAEEERYFRAQSREQLAALKKHHEEEIVHHKKEI | 94%
RGAGSIREAGGAFGKREQAEEERYFRAQSREQLAALKKHHEEEIVHH [IF1-10-56] | 88%
RGAGSIREAGGAFGKREQAEEERYFRAQSREQLAALKK [IF1-10-47] | 75%
